This passage reports lowest detectable CRP concentration results from JP2008058208A.

The assay concerns the target T1, C−反応性タンパク(CRP), ヒトCRP抗原 (human) (UniProt P02741).
T1 sequence (looked up): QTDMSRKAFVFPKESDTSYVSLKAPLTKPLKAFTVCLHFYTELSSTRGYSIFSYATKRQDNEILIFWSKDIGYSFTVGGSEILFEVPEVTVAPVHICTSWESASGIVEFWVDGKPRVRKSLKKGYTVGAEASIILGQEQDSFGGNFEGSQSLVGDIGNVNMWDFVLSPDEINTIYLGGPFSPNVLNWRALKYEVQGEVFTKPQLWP
In words: sandwich immunochromatography, His20 as capture and as gold-colloid label, read by eye after 15 min.

B1: 抗CRPscFv抗体No.20 (His-tagged scFv, His20) (scFv, not shown: small tags and cut ends)
scFv: MAQVKLPESGAELVKPGASVKLSCTPSGFNIKDTYIHWVRQRPGQGLEWIGRIDPANGHTRYAPKFQGKATLTADASSNTAYLHLSSLTSEDTAVYYCPRIVWYSGGYAMDYWGQGTTVTVSSGGGGSGGGGSGGGGSDIELTQSPSSMYASLGERVTITCKASQDINSYLSWFQQKPGKSPKTLIYRANRLVDGVPSRFSGSGSGQDYSLTISSLKYEDMGIYYCLQYDEFPLTFGGGTKLEIKRAA
In the case of B1, the lowest detectable CRP concentration is 1 ng/mL.
